The values below come from patent US20210388102A1 (IMMUNOGEN, published 2021).

Where a chain is given by its changes, count along the chain named. Numbers in names are those of the source.

The term EC50 denotes the midpoint of the concentration-response curve. As a reminder, the Kd is a measure of binding affinity in units of concentration. The koff is the rate constant with which the complex falls apart. One may read the kon as the rate constant with which the complex forms. For orientation: EC50 (read off the curve) means the midpoint of the concentration-response curve.

Assay [1] deals with T1, human ADAM9 (huADAM9) on cells (human, UniProt Q13443 206-819).
T1 construct: The pro-domain is said to be cleaved (Arg-205/Ala-206) in the mature protein; also called Cho-K/huADAM9; Cho-K/hu ADAM9.2
T1 sequence: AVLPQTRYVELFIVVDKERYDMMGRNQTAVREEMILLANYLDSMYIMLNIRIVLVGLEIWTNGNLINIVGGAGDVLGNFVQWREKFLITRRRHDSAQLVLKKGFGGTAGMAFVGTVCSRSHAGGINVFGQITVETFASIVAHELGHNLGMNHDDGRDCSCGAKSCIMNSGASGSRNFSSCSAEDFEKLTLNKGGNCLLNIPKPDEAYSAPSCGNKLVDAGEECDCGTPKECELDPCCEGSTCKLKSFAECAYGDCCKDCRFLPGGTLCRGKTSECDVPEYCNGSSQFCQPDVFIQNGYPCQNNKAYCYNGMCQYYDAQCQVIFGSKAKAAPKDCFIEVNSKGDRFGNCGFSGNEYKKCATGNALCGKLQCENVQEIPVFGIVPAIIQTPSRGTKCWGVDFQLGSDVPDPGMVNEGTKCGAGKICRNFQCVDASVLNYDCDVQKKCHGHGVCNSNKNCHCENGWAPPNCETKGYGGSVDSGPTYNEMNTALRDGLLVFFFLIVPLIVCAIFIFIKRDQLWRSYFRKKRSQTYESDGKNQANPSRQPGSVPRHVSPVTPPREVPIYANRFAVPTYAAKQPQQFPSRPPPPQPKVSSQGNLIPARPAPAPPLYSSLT
Put plainly: FACS, 300-19 cells expressing human ADAM9.
Description: (§1) To evaluate the consequence of conjugation on antigen binding, the relative binding affinity of each anti-ADAM9 immunoconjugate and its respective unconjugated antibody to ADAM9 was determined by FACS analysis on 300-19 cells ectopically-expressing either human ADAM9 or cynomolgus ADAM9. Briefly, the ADAM9-expressing 300-19 cells were incubated with dilution series of anti-ADAM9 antibodies or immunoconjugates for 30 min @ 4° C. in FACS buffer (PBS, 0.1% BSA, 0.01% NaN₃), Samples were then washed and incubated with fluorescently-labeled secondary antibody for 30 minutes at 4° C. The normalized mean of fluorescence intensity at each concentration was plotted and the EC50 of binding was calculated using a nonlinear regression analysis (GraphPad Prims 4.0).

The target in assay [2] is T2, cynomolgus monkey ADAM9 (cynoADAM9) on cells (cynomolgus monkey, UniProt Q13443 206-819 (human entry)).
T2 construct: also called Cho-K/cynoADAM9 clone 2; Cho-K/cynoADAM9 clone #16
T2 chain: T1 sequence with V69A, Q130H, G421D, V441I, S521R, G546V, A569P
Description: FACS, 300-19 cells expressing cynomolgus ADAM9. Background: Flow cytometry measures light scatter and fluorescence of single cells or particles in a stream.
Description: as §1

In assay [3] the target is T3, His-tagged soluble human ADAM9 (shADAM9-His) (human, UniProt Q13443 206-697).
T3 construct: Contains an extracellular portion of human ADAM9; also called huADAM9-His; His peptide-tagged soluble huADAM9
T3 sequence: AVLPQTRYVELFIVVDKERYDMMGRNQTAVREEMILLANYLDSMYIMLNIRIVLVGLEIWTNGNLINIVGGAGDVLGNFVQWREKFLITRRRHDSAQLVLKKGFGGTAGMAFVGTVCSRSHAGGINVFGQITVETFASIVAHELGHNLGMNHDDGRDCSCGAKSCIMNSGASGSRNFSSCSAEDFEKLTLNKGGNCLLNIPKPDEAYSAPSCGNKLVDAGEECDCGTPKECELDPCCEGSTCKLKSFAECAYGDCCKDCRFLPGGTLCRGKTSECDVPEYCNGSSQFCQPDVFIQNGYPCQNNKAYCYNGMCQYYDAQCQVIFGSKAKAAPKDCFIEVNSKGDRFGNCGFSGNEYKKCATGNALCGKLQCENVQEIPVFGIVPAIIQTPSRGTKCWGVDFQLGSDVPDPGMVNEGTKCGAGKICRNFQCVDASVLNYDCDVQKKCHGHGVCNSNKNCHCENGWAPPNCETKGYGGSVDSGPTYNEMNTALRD
Put plainly: SPR (BIACORE), antibody captured, huADAM9-His in flow.
Description: (§2) The kinetics of binding were determined via BIACORE® analysis binding (normalized 1:1 Langmuir binding model).

For assay [4], the target named is T2, cynomolgus monkey ADAM9 (cynoADAM9) on …. Description: FACS, EC50 on 300-19 cynoADAM9 cells over EC50 on 300-19 huADAM9 cells.
Description: as §1
Assay [5] has as its target T3, His-tagged soluble human ADAM9 …. Description: SPR (BIACORE), antibody captured on anti-human Fc, shADAM9-His 6.25-100 nM, 1:1 Langmuir. Background: In SPR one partner is held on a chip, and binding of the other changes the refractive index at the surface.
Description: as §2
The target is the same in assay [6]. Description: ELISA: His-tagged soluble huADAM9 (0.5 µg/mL) captured by plate-coated anti-His antibody; serial dilutions of antibody about 0.2-500 ng/mL; abs @450nm. (In general: ELISA stands for enzyme-linked immunosorbent assay.)
Description: The binding of each Fc variant to huADAM9-His and cynoADAM9-His was examined by ELISA assay.
Assay [7] addresses T1, human ADAM9 (huADAM9) on cells. Description: cell-based or functional assay.

B1: hMAB-A (2C.2) (antibody, human IgG1, kappa, V domains shown)
VH: EVQLVESGGGLVKPGGSLRLSCAASGFTFSSYWMHWVRQAPGKGLEWVGEIIPIFGHTNYNEKFKSRFTISLDNSKNTLYLQMGSLRAEDTAVYYCARGGYYYYPRFGWLDYWGQGTTVTVSS
VL: DIVMTQSPDSLAVSLGERATISCKASQSVDYSGDSYMNWYQQKPGQPPKLLIYAASDLESGIPARFSGSGSGTDFTLTISSLEPEDFATYYCQQSHEDPFTFGQGTKLEIKR
notes: IgG1 kappa; also called MAB-A VH(2C); MAB-A VH(2C.2)
Molecule B1 had a half-maximal effective concentration (EC50) in assay [1] of 1.22 nM. For the same molecule, the midpoint of the response in assay [2], the EC50, lay at 3.8 nM. In assay [3], the Kd came out at 1.4 nM, the koff came to 0.00081 s⁻¹ and the kon came out at 590000 M⁻¹ s⁻¹. Further, the “cyno/human (ratio of EC50)” value in assay [4] came to 3.

B2: hMAB-A (2.3) (antibody, V domains shown)
VH: B1 VH with P105G, R106S, F107R, G108D, W109Y, L110F
VL: DIVMTQSPDSLAVSLGERATISCRASQSVDYSGDSYMNWYQQKPGQPPKLLIYAASDLESGIPARFSGSGSGTDFTLTISSLEPEDFATYYCQQSHEDPFTFGQGTKLEIK
notes: also called hMAB-A VH(2)/hMAB-A VL(3)
In the case of B2, the affinity in assay [5], expressed as Kd, was 1.3 nM.

B3: hMAB-A (4.4) (antibody, V domains shown)
VH: B1 VH with M34I, K63R, K65Q, S66G, P105G, R106S, F107R, G108D, W109Y, L110F
VL: B2 VL with M37L, H96Y, E97S, D98T
notes: also called hMAB-A VH(4)/hMAB-A VL(4)
Molecule B3 gave a Kd in assay [5] of 2 nM.

B4: hMAB-A (3.3) (antibody, V domains shown)
VH: B1 VH with K63R, K65Q, S66G, P105G, R106S, F107R, G108D, W109Y, L110F
VL: B2 VL
notes: also called hMAB-A VH(3)/hMAB-A VL(3)
Turning to B4, the Kd in assay [5] was determined as 1.4 nM.

B5: hMAB-A (2I.2)(AA) (antibody, human IgG1, kappa, L234A L235A)
heavy: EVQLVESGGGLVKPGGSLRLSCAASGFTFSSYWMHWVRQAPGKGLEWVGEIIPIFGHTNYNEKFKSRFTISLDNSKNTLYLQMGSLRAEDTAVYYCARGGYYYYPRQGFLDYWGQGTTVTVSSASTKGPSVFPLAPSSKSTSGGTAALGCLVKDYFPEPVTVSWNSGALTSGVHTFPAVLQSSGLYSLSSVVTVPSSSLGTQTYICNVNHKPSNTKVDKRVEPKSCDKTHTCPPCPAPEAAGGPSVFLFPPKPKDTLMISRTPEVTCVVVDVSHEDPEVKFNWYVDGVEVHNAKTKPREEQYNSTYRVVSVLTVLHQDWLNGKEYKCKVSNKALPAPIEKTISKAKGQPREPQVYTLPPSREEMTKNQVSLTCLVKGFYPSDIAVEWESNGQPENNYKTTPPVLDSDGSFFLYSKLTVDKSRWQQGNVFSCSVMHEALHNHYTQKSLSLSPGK
light: DIVMTQSPDSLAVSLGERATISCKASQSVDYSGDSYMNWYQQKPGQPPKLLIYAASDLESGIPARFSGSGSGTDFTLTISSLEPEDFATYYCQQSHEDPFTFGQGTKLEIKRTVAAPSVFIFPPSDEQLKSGTASVVCLLNNFYPREAKVQWKVDNALQSGNSQESVTEQDSKDSTYSLSSTLTLSKADYEKHKVYACEVTHQGLSSPVTKSFNRGEC
notes: Last residue X is lysine or absent; also called L234A/L235A Fc variant of hMAB-A (2I.2)
B5: the “EC50 (read off the curve)” value in assay [6] was roughly 9 ng/mL.

B6: hMAB-A(2I.2)-S442C-DGN549 (antibody)
heavy: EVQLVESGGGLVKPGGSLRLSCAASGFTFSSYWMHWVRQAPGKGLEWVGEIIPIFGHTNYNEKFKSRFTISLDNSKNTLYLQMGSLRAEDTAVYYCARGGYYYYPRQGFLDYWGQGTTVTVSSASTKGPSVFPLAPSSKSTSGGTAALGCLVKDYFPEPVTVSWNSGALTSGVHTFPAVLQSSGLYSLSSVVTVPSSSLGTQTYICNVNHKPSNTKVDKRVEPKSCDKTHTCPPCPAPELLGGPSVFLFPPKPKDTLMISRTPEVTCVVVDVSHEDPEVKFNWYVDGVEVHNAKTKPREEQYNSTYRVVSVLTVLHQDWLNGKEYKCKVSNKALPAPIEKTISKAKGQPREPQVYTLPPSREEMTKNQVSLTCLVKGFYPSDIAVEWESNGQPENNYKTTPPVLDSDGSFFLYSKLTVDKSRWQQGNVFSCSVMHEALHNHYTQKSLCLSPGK
light: B5 light
modifications: DGN549-C (compound D5) on the engineered Cys S442C (EU index; 6th to the last residue of SEQ ID NO 142 when X is lysine); average 1.9 mol DGN549/mol antibody
notes: also called huMAB-A(2I.2)-S442C-DGN549
For the molecule B6, in assay [7], the “Fold-specificity (IC50 control ADC/IC50 anti-ADAM9 ADC), A498” value was greater than 1000 fold; the “Fold-specificity (IC50 control ADC/IC50 anti-ADAM9 ADC), DLD-1” value was greater than 1000 fold; the “Fold-specificity (IC50 control ADC/IC50 anti-ADAM9 ADC), DU145” value is greater than 1000 fold; the “Fold-specificity (IC50 control ADC/IC50 anti-ADAM9 ADC), HPAF2” value is greater than 1000 fold. Besides, in assay [7], the “Fold-specificity (IC50 control ADC/IC50 anti-ADAM9 ADC), HS578T” value was 646 fold; the “Fold-specificity (IC50 control ADC/IC50 anti-ADAM9 ADC), IGROV1” value is greater than 1000 fold; the “Fold-specificity (IC50 control ADC/IC50 anti-ADAM9 ADC), KATO III” value was greater than 1000 fold; the “Fold-specificity (IC50 control ADC/IC50 anti-ADAM9 ADC), NCI-H1703” value was greater than 1000 fold. Further, in assay [7], the “In Vitro Cytotoxicity (IC50 nM), A498” value was 0.004 nM; the “In Vitro Cytotoxicity (IC50 nM), DLD-1” value was determined as 0.045 nM; the “In Vitro Cytotoxicity (IC50 nM), DU145” value came to 0.004 nM; the “In Vitro Cytotoxicity (IC50 nM), HPAF2” value came to 0.115 nM. In addition, in assay [7], the “In Vitro Cytotoxicity (IC50 nM), HS578T” value was 0.017 nM; the “In Vitro Cytotoxicity (IC50 nM), IGROV1” value was determined as 0.003 nM; the “In Vitro Cytotoxicity (IC50 nM), KATO III” value is 0.065 nM; the “In Vitro Cytotoxicity (IC50 nM), NCI-H1703” value came out at 0.004 nM. Further, in assay [1], the EC50 is 2.49 nM. Moreover, in assay [2], the EC50 worked out at 6.2 nM. The “cyno/human (ratio of EC50)” value in assay [4] came to 2.

B7: hMAB-A (1.1) (antibody, V domains shown)
VH: B1 VH with F55N, P105G, R106S, F107R, G108D, W109Y, L110F
VL: B2 VL with R24K, S32D
notes: also called hMAB-A VH(1)/hMAB-A VL(1)
B7: in assay [5], binding was put at a Kd of 3.5 nM.

B8: hMAB-A (2I.2)(AA/C) (antibody)
heavy: EVQLVESGGGLVKPGGSLRLSCAASGFTFSSYWMHWVRQAPGKGLEWVGEIIPIFGHTNYNEKFKSRFTISLDNSKNTLYLQMGSLRAEDTAVYYCARGGYYYYPRQGFLDYWGQGTTVTVSSASTKGPSVFPLAPSSKSTSGGTAALGCLVKDYFPEPVTVSWNSGALTSGVHTFPAVLQSSGLYSLSSVVTVPSSSLGTQTYICNVNHKPSNTKVDKRVEPKSCDKTHTCPPCPAPEAAGGPSVFLFPPKPKDTLMISRTPEVTCVVVDVSHEDPEVKFNWYVDGVEVHNAKTKPREEQYNSTYRVVSVLTVLHQDWLNGKEYKCKVSNKALPAPIEKTISKAKGQPREPQVYTLPPSREEMTKNQVSLTCLVKGFYPSDIAVEWESNGQPENNYKTTPPVLDSDGSFFLYSKLTVDKSRWQQGNVFSCSVMHEALHNHYTQKSLCLSPGK
light: B5 light
notes: Last residue X is lysine or absent; also called L234A/L235A/S442C Fc variant of hMAB-A (2I.2)
With B8, the “EC50 (read off the curve)” value in assay [6] is roughly 9 ng/mL.

B9: chMAB-A (antibody, V domains shown)
VH: QVQLQQPGAELVKPGASVKLSCKASGYTFTSYWMHWVKQRPGQGLEWIGEIIPINGHTNYNEKFKSKATLTLDKSSSTAYMQLSSLASEDSAVYYCARGGYYYYGSRDYFDYWGQGTTLTVSS
VL: DIVLTQSPASLAVSLGQRATISCKASQSVDYDGDSYMNWYQQIPGQPPKLLIYAASDLESGIPARFSGSGSGTDFTLNIHPVEEEDAATYYCQQSHEDPFTFGGGTKLEIK
notes: also called chimeric version of MAB-A; chimeric chMAB-A
Consider B9, for which the EC50 in assay [1] is 0.41 nM; in assay [2], 112 nM. The “cyno/human (ratio of EC50)” value in assay [4] came to 273. In assay [5], this molecule had a Kd of 3.6 nM.

B10: hMAB-A(2I.2)-sSPDB-DM4 (antibody, human IgG1, kappa)
heavy: not shown
light: B5 light
modifications: lysine-linked DM4, sites not given; DM4 linked through sulfo-SPDB to lysine residues of the antibody, sites not given; average 3.5 mol DM4/mol antibody
Turning to B10, in assay [7], the “Fold-specificity (IC50 control ADC/IC50 anti-ADAM9 ADC), A498” value worked out at 30 fold; the “Fold-specificity (IC50 control ADC/IC50 anti-ADAM9 ADC), DLD-1” value was 63 fold; the “Fold-specificity (IC50 control ADC/IC50 anti-ADAM9 ADC), DU145” value was 32 fold; the “Fold-specificity (IC50 control ADC/IC50 anti-ADAM9 ADC), HPAF2” value was determined as 13 fold. Besides, in assay [7], the “Fold-specificity (IC50 control ADC/IC50 anti-ADAM9 ADC), HS578T” value came to 20 fold; the “Fold-specificity (IC50 control ADC/IC50 anti-ADAM9 ADC), IGROV1” value came to 8 fold; the “Fold-specificity (IC50 control ADC/IC50 anti-ADAM9 ADC), KATO III” value is 11 fold; the “Fold-specificity (IC50 control ADC/IC50 anti-ADAM9 ADC), NCI-H1703” value turned out to be 132 fold. For the same molecule, in assay [7], the “In Vitro Cytotoxicity (IC50 nM), A498” value worked out at 0.108 nM; the “In Vitro Cytotoxicity (IC50 nM), DLD-1” value worked out at 0.386 nM; the “In Vitro Cytotoxicity (IC50 nM), DU145” value was 0.439 nM; the “In Vitro Cytotoxicity (IC50 nM), HPAF2” value came out at 0.422 nM. Moreover, in assay [7], the “In Vitro Cytotoxicity (IC50 nM), HS578T” value stood at 0.094 nM; the “In Vitro Cytotoxicity (IC50 nM), IGROV1” value amounted to 1.41 nM; the “In Vitro Cytotoxicity (IC50 nM), KATO III” value was 0.48 nM; the “In Vitro Cytotoxicity (IC50 nM), NCI-H1703” value came to 0.028 nM. Moreover, the EC50 in assay [1] stood at 1.55 nM. In addition, in assay [2], the midpoint of the response, the EC50, lay at 4.9 nM. In assay [4], the “cyno/human (ratio of EC50)” value was determined as 3.
